# Laboratory results published in the supplement of paper PMC5998384.
# Columns and labels:
# HeLa Kyoto [1] = assay: solubility in G1/S (NP-40 vs SDS abundance) (log2 ratio); higher = more soluble; conditions: cell cycle stage: G1/S
# HeLa Kyoto [2] = assay: thermal stability score vs G1/S (z-score of summed log2 fold changes over temperatures); higher = more thermally stable than in G1/S
# HeLa Kyoto [3] = assay: solubility change mitosis vs G1/S (difference of NP-40 vs SDS log2 ratios) (log2 ratio difference); higher = more soluble in mitosis
# HeLa Kyoto [4] = assay: melting temperature (median over replicates), in situ; higher = more thermally stable
# [5] = cell cycle stage: early G1 (4.5 h after nocodazole release)
# 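For melting temperature (median over replicates), in situ in this document: HeLa Kyoto cells synchronized by double thymidine or nocodazole block, proteins quantified by TMT10plex mass spectrometry, three independent biological replicates.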
# 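For solubility change mitosis vs G1/S (difference of NP-40 vs SDS log2 ratios) in this document: synchronized HeLa Kyoto cells (double thymidine block for G1/S, nocodazole release for mitosis), protein amounts in NP-40 versus SDS lysates quantified by mass spectrometry, three biological replicates.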
# 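For solubility in G1/S (NP-40 vs SDS abundance) in this document: HeLa Kyoto cells arrested at G1/S by double thymidine block, proteins quantified by TMT10plex mass spectrometry in mild NP-40 versus SDS extracts, three biological replicates.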
# 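For thermal stability score vs G1/S (z-score of summed log2 fold changes over temperatures) in this document: synchronized HeLa Kyoto cells, proteins quantified by TMT10plex mass spectrometry, three biological replicates, mitosis taken 0.5 h after nocodazole release, G1/S directly after double thymidine block.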
Sequence,solubility in G1/S (log2) (HeLa Kyoto [1]),thermal stability score (HeLa Kyoto [2]; [5]),thermal stability score (HeLa Kyoto [2]; cell cycle stage: mitosis),solubility change mitosis (log2) (HeLa Kyoto [3]),melting temperature (HeLa Kyoto [4]; cell cycle stage: G1/S) [°C],melting temperature (HeLa Kyoto [4]; cell cycle stage: mitosis) [°C]
MPGPRRPAGSRLRLLLLLLLPPLLLLLRGSHAGNLTVAVVLPLANTSYPWSWARVGPAVELALAQVKARPDLLPGWTVRTVLGSSENALGVCSDTAAPLAAVDLKWEHNPAVFLGPGCVYAAAPVGRFTAHWRVPLLTAGAPALGFGVKDEYALTTRAGPSYAKLGDFVAALHRRLGWERQALMLYAYRPGDEEHCFFLVEGLFMRVRDRLNITVDHLEFAEDDLSHYTRLLRTMPRKGRVIYICSSPDAFRTLMLLALEAGLCGEDYVFFHLDIFGQSLQGGQGPAPRRPWERGDGQDVSARQAFQAAKIITYKDPDNPEYLEFLKQLKHLAYEQFNFTMEDGLVNTIPASFHDGLLLYIQAVTETLAHGGTVTDGENITQRMWNRSFQGVTGYLKIDSSGDRETDFSLWDMDPENGAFRVVLNYNGTSQELVAVSGRKLNWPLGYPPPDIPKCGFDNEDPACNQDHLSTLEVLALVGSLSLLGILIVSFFIYRKMQLEKELASELWRVRWEDVEPSSLERHLRSAGSRLTLSGRGSNYGSLLTTEGQFQVFAKTAYYKGNLVAVKRVNRKRIELTRKVLFELKHMRDVQNEHLTRFVGACTDPPNICILTEYCPRGSLQDILENESITLDWMFRYSLTNDIVKGMLFLHNGAICSHGNLKSSNCVVDGRFVLKITDYGLESFRDLDPEQGHTVYAKKLWTAPELLRMASPPVRGSQAGDVYSFGIILQEIALRSGVFHVEGLDLSPKEIIERVTRGEQPPFRPSLALQSHLEELGLLMQRCWAEDPQERPPFQQIRLTLRKFNRENSSNILDNLLSRMEQYANNLEELVEERTQAYLEEKRKAEALLYQILPHSVAEQLKRGETVQAEAFDSVTIYFSDIVGFTALSAESTPMQVVTLLNDLYTCFDAVIDNFDVYKVETIGDAYMVVSGLPVRNGRLHACEVARMALALLDAVRSFRIRHRPQEQLRLRIGIHTGPVCAGVVGLKMPRYCLFGDTVNTASRMESNGEALKIHLSSETKAVLEEFGGFELELRGDVEMKGKGKVRTYWLLGERGSSTRG [NPR1],0.0297,0.231,-0.0841,-0.0544,52.4,51.4
MPGRAPLRTVPGALGAWLLGGLWAWTLCGLCSLGAVGAPRPCQAPQQWEGRQVMYQQSSGRNSRALLSYDGLNQRVRVLDERKALIPCKRLFEYILLYKDGVMFQIDQATKQCSKMTLTQPWDPLDIPQNSTFEDQYSIGGPQEQITVQEWSDRKSARSYETWIGIYTVKDCYPVQETFTINYSVILSTRFFDIQLGIKDPSVFTPPSTCQMAQLEKMSEDCSW [EPDR1],0.348,-1.3,-2.65,-0.162,56.1,55
MPGSAAKGSELSERIESFVETLKRGGGPRSSEEMARETLGLLRQIITDHRWSNAGELMELIRREGRRMTAAQPSETTVGNMVRRVLKIIREEYGRLHGRSDESDQQESLHKLLTSGGLNEDFSFHYAQLQSNIIEAINELLVELEGTMENIAAQALEHIHSNEVIMTIGFSRTVEAFLKEAARKRKFHVIVAECAPFCQGHEMAVNLSKAGIETTVMTDAAIFAVMSRVNKVIIGTKTILANGALRAVTGTHTLALAAKHHSTPLIVCAPMFKLSPQFPNEEDSFHKFVAPEEVLPFTEGDILEKVSVHCPVFDYVPPELITLFISNIGGNAPSYIYRLMSELYHPDDHVL [EIF2B2],0.101,1.74,0.854,-0.191,51.4,50.5
MPHLENVVLCRESQVSILQSLFGERHHFSFPSIFIYGHTASGKTYVTQTLLKTLELPHVFVNCVECFTLRLLLEQILNKLNHLSSSEDGCSTEITCETFNDFVRLFKQVTTAENLKDQTVYIVLDKAEYLRDMEANLLPGFLRLQELADRNVTVLFLSEIVWEKFRPNTGCFEPFVLYFPDYSIGNLQKILSHDHPPEYSADFYAAYINILLGVFYTVCRDLKELRHLAVLNFPKYCEPVVKGEASERDTRKLWRNIEPHLKKAMQTVYLREISSSQWEKLQKDDTDPGQLKGLSAHTHVELPYYSKFILIAAYLASYNPARTDKRFFLKHHGKIKKTNFLKKHEKTSNHLLGPKPFPLDRLLAILYSIVDSRVAPTANIFSQITSLVTLQLLTLVGHDDQLDGPKYKCTVSLDFIRAIARTVNFDIIKYLYDFL [ORC5],-0.362,0.957,1.24,-0.126,47.1,49
MPKAKGKTRRQKFGYSVNRKRLNRNARRKAAPRIECSHIRHAWDHAKSVRQNLAEMGLAVDPNRAVPLRKRKVKAMEVDIEERPKELVRKPYVLNDLEAEASLPEKKGNTLSRDLIDYVRYMVENHGEDYKAMARDEKNYYQDTPKQIRSKINVYKRFYPAEWQDFLDSLQKRKMEVE [NOP16],-1.15,-0.631,-6.32,1.22,57.3,54.2
MPLELELCPGRWVGGQHPCFIIAEIGQNHQGDLDVAKRMIRMAKECGADCAKFQKSELEFKFNRKALERPYTSKHSWGKTYGEHKRHLEFSHDQYRELQRYAEEVGIFFTASGMDEMAVEFLHELNVPFFKVGSGDTNNFPYLEKTAKKGRPMVISSGMQSMDTMKQVYQIVKPLNPNFCFLQCTSAYPLQPEDVNLRVISEYQKLFPDIPIGYSGHETGIAISVAAVALGAKVLERHITLDKTWKGSDHSASLEPGELAELVRSVRLVERALGSPTKQLLPCEMACNEKLGKSVVAKVKIPEGTILTMDMLTVKVGEPKGYPPEDIFNLVGKKVLVTVEEDDTIMEELVDNHGKKIKS [NANS],0.172,-1.59,-2.55,-0.108,53,52.3
MPLFFRKRKPSEEARKRLEYQMCLAKEAGADDILDISKCELSEIPFGAFATCKVLQKKVLIVHTNHLTSLLPKSCSLLSLATIKVLDLHDNQLTALPDDLGQLTALQVLNVERNQLMQLPRSIGNLTQLQTLNVKDNKLKELPDTVGELRSLRTLNISGNEIQRLPQMLAHVRTLEMLSLDASAMVYPPREVCGAGTAAILQFLCKESGLEYYPPSQYLLPILEQDGIENSRDSPDGPTDRFSREELEWQNRFSDYEKRKEQKMLEKLEFERRLELGQREHTQLLQQSSSQKDEILQTVKEEQSRLEQGLSEHQRHLNAERQRLQEQLKQTEQNISSRIQKLLQDNQRQKKSSEILKSLENERIRMEQLMSITQEETESLRRRDVASAMQQMLTESCKNRLIQMAYESQRQNLVQQACSSMAEMDERFQQILSWQQMDQNKAISQILQESAMQKAAFEALQVKKDLMHRQIRSQIKLIETELLQLTQLELKRKSLDTESLQEMISEQRWALSSLLQQLLKEKQQREEELREILTELEAKSETRQENYWLIQYQRLLNQKPLSLKLQEEGMERQLVALLEELSAEHYLPIFAHHRLSLDLLSQMSPGDLAKVGVSEAGLQHEILRRVQELLDAARIQPELKPPMGEVVTPTAPQEPPESVRPSAPPAELEVQASECVVCLEREAQMIFLNCGHVCCCQQCCQPLRTCPLCRQDIAQRLRIYHSS [LRSAM1],0.149,0.0283,0.57,-0.0589,51,50.9
MPLNRTLSMSSLPGLEDWEDEFDLENAVLFEVAWEVANKVGGIYTVLQTKAKVTGDEWGDNYFLVGPYTEQGVRTQVELLEAPTPALKRTLDSMNSKGCKVYFGRWLIEGGPLVVLLDVGASAWALERWKGELWDTCNIGVPWYDREANDAVLFGFLTTWFLGEFLAQSEEKPHVVAHFHEWLAGVGLCLCRARRLPVATIFTTHATLLGRYLCAGAVDFYNNLENFNVDKEAGERQIYHRYCMERAAAHCAHVFTTVSQITAIEAQHLLKRKPDIVTPNGLNVKKFSAMHEFQNLHAQSKARIQEFVRGHFYGHLDFNLDKTLYFFIAGRYEFSNKGADVFLEALARLNYLLRVNGSEQTVVAFFIMPARTNNFNVETLKGQAVRKQLWDTANTVKEKFGRKLYESLLVGSLPDMNKMLDKEDFTMMKRAIFATQRQSFPPVCTHNMLDDSSDPILTTIRRIGLFNSSADRVKVIFHPEFLSSTSPLLPVDYEEFVRGCHLGVFPSYYEPWGYTPAECTVMGIPSISTNLSGFGCFMEEHIADPSAYGIYILDRRFRSLDDSCSQLTSFLYSFCQQSRRQRIIQRNRTERLSDLLDWKYLGRYYMSARHMALSKAFPEHFTYEPNEADAAQGYRYPRPASVPPSPSLSRHSSPHQSEDEEDPRNGPLEEDGERYDEDEEAAKDRRNIRAPEWPRRASCTSSTSGSKRNSVDTATSSSLSTPSEPLSPTSSLGEERN [GYS1],-0.205,2.32,2.69,-0.314,54.5,55.2
MPLSRWLRSVGVFLLPAPYWAPRERWLGSLRRPSLVHGYPVLAWHSARCWCQAWTEEPRALCSSLRMNGDQNSDVYAQEKQDFVQHFSQIVRVLTEDEMGHPEIGDAIARLKEVLEYNAIGGKYNRGLTVVVAFRELVEPRKQDADSLQRAWTVGWCVELLQAFFLVADDIMDSSLTRRGQICWYQKPGVGLDAINDANLLEACIYRLLKLYCREQPYYLNLIELFLQSSYQTEIGQTLDLLTAPQGNVDLVRFTEKRYKSIVKYKTAFYSFYLPIAAAMYMAGIDGEKEHANAKKILLEMGEFFQIQDDYLDLFGDPSVTGKIGTDIQDNKCSWLVVQCLQRATPEQYQILKENYGQKEAEKVARVKALYEELDLPAVFLQYEEDSYSHIMALIEQYAAPLPPAVFLGLARKIYKRRK [FDPS],0.151,2.88,3.37,-0.0646,50.8,51
MPNWGGGKKCGVCQKTVYFAEEVQCEGNSFHKSCFLCMVCKKNLDSTTVAVHGEEIYCKSCYGKKYGPKGYGYGQGAGTLSTDKGESLGIKHEEAPGHRPTTNPNASKFAQKIGGSERCPRCSQAVYAAEKVIGAGKSWHKACFRCAKCGKGLESTTLADKDGEIYCKGCYAKNFGPKGFGFGQGAGALVHSE [CSRP1],-0.0793,-1.5,-2.91,-0.142,60.2,–
MPPKKQAQAGGSKKAEQKKKEKIIEDKTFGLKNKKGAKQQKFIKAVTHQVKFGQQNPRQVAQSEAEKKLKKDDKKKELQELNELFKPVVAAQKISKGADPKSVVCAFFKQGQCTKGDKCKFSHDLTLERKCEKRSVYIDARDEELEKDTMDNWDEKKLEEVVNKKHGEAEKKKPKTQIVCKHFLEAIENNKYGWFWVCPGGGDICMYRHALPPGFVLKKDKKKEEKEDEISLEDLIERERSALGPNVTKITLESFLAWKKRKRQEKIDKLEQDMERRKADFKAGKALVISGREVFEFRPELVNDDDEEADDTRYTQGTGGDEVDDSVSVNDIDLSLYIPRDVDETGITVASLERFSTYTSDKDENKLSEASGGRAENGERSDLEEDNEREGTENGAIDAVPVDENLFTGEDLDELEEELNTLDLEE [ZC3H15],-0.131,0.581,-2.59,-0.0422,54.1,53.6
